Results as given in PMC9469209, “Structural basis for activation of Arf1 at the Golgi complex” (Cell reports, 2022).

B1: Gea2 (full-length Saccharomyces cerevisiae Gea2) (enzyme, UniProt P39993 1-1459, looked up)
chain: MSDREFVTVDPVTIIIKECINLSTAMRKYSKFTSQSGVAALLGGGSEIFSNQDDYLAHTFNNLNTNKHNDPFLSGFIQLRLMLNKLKNLDNIDSLTILQPFLLIVSTSSISGYITSLALDSLQKFFTLNIINESSQNYIGAHRATVNALTHCRFEGSQQLSDDSVLLKVVFLLRSIVDSPYGDLLSNSIIYDVLQTILSLACNNRRSEVLRNAAQSTMIAVTVKIFSKLKTIEPVNVNQIYINDESYTNDVLKADTIGTNVESKEEGSQEDPIGMKVNNEEAISEDDGIEEEHIHSEKSTNGAEQLDIVQKTTRSNSRIQAYADDNYGLPVVRQYLNLLLSLIAPENELKHSYSTRIFGLELIQTALEISGDRLQLYPRLFTLISDPIFKSILFIIQNTTKLSLLQATLQLFTTLVVILGNNLQLQIELTLTRIFSILLDDGTANNSSSENKNKPSIIKELLIEQISILWTRSPSFFTSTFINFDCNLDRADVSINFLKALTKLALPESALTTTESVPPICLEGLVSLVDDMFDHMKDIDREEFGRQKNEMEILKKRDRKTEFIECTNAFNEKPKKGIPMLIEKGFIASDSDKDIAEFLFNNNNRMNKKTIGLLLCHPDKVSLLNEYIRLFDFSGLRVDEAIRILLTKFRLPGESQQIERIIEAFSSAYCENQDYDPSKISDNAEDDISTVQPDADSVFILSYSIIMLNTDLHNPQVKEHMSFEDYSGNLKGCCNHKDFPFWYLDRIYCSIRDKEIVMPEEHHGNEKWFEDAWNNLISSTTVITEIKKDTQSVMDKLTPLELLNFDRAIFKQVGPSIVSTLFNIYVVASDDHISTRMITSLDKCSYISAFFDFKDLFNDILNSIAKGTTLINSSHDDELSTLAFEYGPMPLVQIKFEDTNTEIPVSTDAVRFGRSFKGQLNTVVFFRIIRRNKDPKIFSKELWLNIVNIILTLYEDLILSPDIFPDLQKRLKLSNLPKPSPEISINKSKESKGLLSTFASYLKGDEEPTEEEIKSSKKAMECIKSSNIAASVFGNESNITADLIKTLLDSAKTEKNADNSRYFEAELLFIIELTIALFLFCKEEKELGKFILQKVFQLSHTKGLTKRTVRRMLTYKILLISLCADQTEYLSKLINDELLKKGDIFTQKFFATNQGKEFLKRLFSLTESEFYRGFLLGNENFWKFLRKVTAMKEQSESIFEYLNESIKTDSNILTNENFMWVLGLLDEISSMGAVGNHWEIEYKKLTESGHKIDKENPYKKSIELSLKSIQLTSHLLEDNNDLRKNEIFAIIQALAHQCINPCKQISEFAVVTLEQTLINKIEIPTNEMESVEELIEGGLLPLLNSSETQEDQKILISSILTIISNVYLHYLKLGKTSNETFLKILSIFNKFVEDSDIEKKLQQLILDKKSIEKGNGSSSHGSAHEQTPESNDVEIEATAPIDDNTDDDNKPKLSDVEKD
notes: Gea2, guanine nucleotide exchange factor for Arf1, Saccharomyces cerevisiae, full length; also called Arf-GEF Gea2; source: Pichia pastoris (KM71H), overexpressed, purified (Ni-NTA, MonoQ, TEV cleavage, Superdex 200 Increase SEC); not shown: His6, N-terminal, cleaved
B2: ΔN17-Arf1 (S. cerevisiae Arf1 lacking its N-terminal amphipathic helix) (domain or fragment, UniProt P11076 18-181, looked up)
chain: MRILMVGLDGAGKTTVLYKLKLGEVITTIPTIGFNVETVQYKNISFTVWDVGGQDRIRSLWRHYYRNTEGVIFVVDSNDRSRIGEAREVMQRMLNEDELRNAAWLVFANKQDLPEAMSAAEITEKLGLHSIRNRPWFIQATCATSGEGLYEGLEWLSNSLKNST
notes: Arf1 GTPase, Saccharomyces cerevisiae, truncated form lacking the N-terminal 17 residues (ΔN17); In the complex Arf1 is nucleotide-free (trapped with alkaline phosphatase); also called nucleotide-free Arf1; Arf1-NF; source: E. coli Rosetta2, purified as previously described (Richardson and Fromme, 2015; Richardson et al., 2012)

How the values were obtained:
[1] = molecular target: the molecule itself; test: cryo-EM structure; Gea2 alone, ~5 mg/mL in SEC buffer (20 mM Tris pH 8.0, 150 mM NaCl, 1 mM DTT) with 2 mM fluorinated fos-choline-8; three dimeric conformations (closed/closed, closed/open, open/open)
[2] = molecular target: B1; test: cryo-EM structure; Gea2-Arf1 complex: 1 mg Gea2, 5 mg ΔN17-Arf1 and 250 units alkaline phosphatase at 4°C overnight, then SEC (20 mM Tris pH 8.0, 300 mM NaCl, 1 mM DTT); nucleotide-free activation intermediate; ~5 mg/mL with 2 mM fluorinated fos-choline-8; settings: both partners purified

binding result [2] | Binder | stoichiometry N [1]
– | B1 | 2
binds | B2 | –
